The numbers were not newly measured in publication PMC3867676, which cites them from elsewhere.

By Kd is commonly meant the constant that tells how readily two partners part at equilibrium.

The target of one data set is RANKL (Homo sapiens) (UniProt O14788).
Another data set deals with TRAIL (Homo sapiens) (UniProt P50591).
Sequence of UniProt P50591 (P50591 whole entry): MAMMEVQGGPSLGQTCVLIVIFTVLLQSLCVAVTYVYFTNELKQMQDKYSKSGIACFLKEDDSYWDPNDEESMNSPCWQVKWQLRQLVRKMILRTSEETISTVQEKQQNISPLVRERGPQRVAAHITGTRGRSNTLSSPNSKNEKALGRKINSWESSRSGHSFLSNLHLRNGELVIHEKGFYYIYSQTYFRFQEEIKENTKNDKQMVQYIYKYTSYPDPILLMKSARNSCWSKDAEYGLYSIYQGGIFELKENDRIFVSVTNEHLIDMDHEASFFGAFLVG

Sequence of UniProt O14788 (O14788 140-317): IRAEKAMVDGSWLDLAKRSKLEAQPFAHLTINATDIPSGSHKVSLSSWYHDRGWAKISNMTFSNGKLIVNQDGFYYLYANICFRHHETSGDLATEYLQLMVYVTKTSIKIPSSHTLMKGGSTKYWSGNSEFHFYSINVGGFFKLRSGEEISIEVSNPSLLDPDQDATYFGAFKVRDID

In the case of OPG (from UniProt O00300), the results for the Kd with RANKL (Homo sapiens) and in the data set with TRAIL (Homo sapiens) were 23 nM and 45 nM, respectively.
